From publication PMC4398322, “Snake neurotoxin α-bungarotoxin is an antagonist at native GABAA receptors” (Neuropharmacology, 2015) come the findings set out here.

In assay [1] the test system is Receptors containing α3/5/6 subunits and β1/2γ2. Nature of the assay: α-Bgtx-AF555 cell surface staining of transfected HEK-293 cells. The format is binding, murine. Conditions: 400 nM, 10 min RT; P > 0.05. As to the method: (§1) Murine GABAAR α1-6, β1-3, γ2 and δ cDNAs subcloned into pRK-5 and pEGFP-C1 have been described previously ([Mortensen et al., 2011]).
(§2) HEK-293 cells were maintained at 37 °C in a humidified 95% air/5% CO2 atmosphere in Dulbecco's modified Eagle's medium (DMEM) supplemented with 10% (v/v) fetal calf serum (FCS), penicillin-G and streptomycin (100 units/ml and 100 μg/ml), 2 mM L-glutamine. Cells were plated onto 22 mm glass coverslips (VWR), coated with poly-L-lysine (Sigma). All media components were from Life Technologies unless otherwise stated.
(§3) Cells were transfected with equimolar ratios of cDNAs encoding for α1–6, β1–3 and δ or γ2 GABAA receptor subunits along with eGFP using a calcium phosphate method ([Mortensen et al., 2011]) 15–45 min after plating.
(§4) Live transfected HEK-293 cells were studied 48 h after transfection and washed with Krebs to remove cell culture media and incubated in 400 nM α-Bgtx coupled with Alexa Fluor 555 (α-Bgtx-AF555; Life Technologies) for 10 min at room temperature (RT). Cells were washed and fixed in 4% paraformaldehyde (PFA; Sigma) for 10 min at RT. The cells were imaged immediately post-fixation in saline using a Zeiss LSM 510 Meta confocal microscope and an Achroplan x40 water DIC objective (NA 0.8) as described previously ([Hannan et al., 2012]). This involved choosing the optimal z-section and acquiring images as a mean of 4 scans in 16-bits using a 543 nm Helium–Neon laser and a 560 nm long-pass filter for α-Bgtx-AF555 and a 488 Argon laser with a 505–530 nm band-pass filter for eGFP.
(§5) Confocal images were analysed using ImageJ (version 1.410) as described previously ([Hannan et al., 2013]). For each cell the surface membrane was identified by drawing a region-of-interest (ROI) in the eGFP channel and this was transferred to the α-Bgtx-AF555 channel and the mean membrane fluorescence values were determined. Mean background fluorescence was determined from a region devoid of cells. This was subtracted from the mean membrane fluorescence providing a mean corrected fluorescence intensity value. These values, for different combinations of receptors and drugs, were graphically plotted using Origin.

Assay [2] has as its target T1, α1β1γ2 GABAAR (Mus musculus, UniProt P22723+P50571+P62812).
T1 construct: expressed in transfected cells; host or cells: HEK-293
The assay is described as above. The format is binding, murine. As to conditions: 400 nM α-Bgtx-AF555, 10 min RT; n = 6. As to the method:
as §1, §2, §3, §4, §5

In assay [3] the target is T2, α1β2γ2 GABAAR (Mus musculus, UniProt P22723+P62812+P63137).
T2 construct: expressed in transfected cells; host or cells: HEK-293
T2 sequence (P63137 25-512): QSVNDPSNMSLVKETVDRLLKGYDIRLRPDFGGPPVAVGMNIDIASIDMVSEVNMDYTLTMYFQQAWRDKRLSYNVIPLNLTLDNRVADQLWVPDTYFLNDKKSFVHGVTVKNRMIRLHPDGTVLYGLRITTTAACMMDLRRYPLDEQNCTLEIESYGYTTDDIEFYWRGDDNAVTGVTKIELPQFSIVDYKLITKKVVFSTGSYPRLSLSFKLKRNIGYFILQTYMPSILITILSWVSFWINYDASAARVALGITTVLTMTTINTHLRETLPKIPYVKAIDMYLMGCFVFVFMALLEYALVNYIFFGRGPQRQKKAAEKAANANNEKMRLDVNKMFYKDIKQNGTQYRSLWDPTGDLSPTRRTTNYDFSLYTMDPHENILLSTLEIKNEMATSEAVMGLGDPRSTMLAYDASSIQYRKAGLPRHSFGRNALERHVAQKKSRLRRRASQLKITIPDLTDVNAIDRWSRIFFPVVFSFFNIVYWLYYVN
T2 sequence (P22723 39-474): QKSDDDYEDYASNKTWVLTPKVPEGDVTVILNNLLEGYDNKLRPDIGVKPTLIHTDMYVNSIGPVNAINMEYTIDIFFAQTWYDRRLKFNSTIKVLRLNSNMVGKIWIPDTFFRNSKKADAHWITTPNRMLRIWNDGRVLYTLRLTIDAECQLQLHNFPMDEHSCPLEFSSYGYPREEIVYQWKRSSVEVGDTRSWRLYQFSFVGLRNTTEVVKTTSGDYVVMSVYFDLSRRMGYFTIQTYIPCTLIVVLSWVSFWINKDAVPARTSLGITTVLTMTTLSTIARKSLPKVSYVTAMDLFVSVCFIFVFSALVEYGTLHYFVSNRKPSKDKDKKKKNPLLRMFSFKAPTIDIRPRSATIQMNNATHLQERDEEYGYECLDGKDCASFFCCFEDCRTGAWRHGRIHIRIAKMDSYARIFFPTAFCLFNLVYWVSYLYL
T2 sequence (P62812 28-455): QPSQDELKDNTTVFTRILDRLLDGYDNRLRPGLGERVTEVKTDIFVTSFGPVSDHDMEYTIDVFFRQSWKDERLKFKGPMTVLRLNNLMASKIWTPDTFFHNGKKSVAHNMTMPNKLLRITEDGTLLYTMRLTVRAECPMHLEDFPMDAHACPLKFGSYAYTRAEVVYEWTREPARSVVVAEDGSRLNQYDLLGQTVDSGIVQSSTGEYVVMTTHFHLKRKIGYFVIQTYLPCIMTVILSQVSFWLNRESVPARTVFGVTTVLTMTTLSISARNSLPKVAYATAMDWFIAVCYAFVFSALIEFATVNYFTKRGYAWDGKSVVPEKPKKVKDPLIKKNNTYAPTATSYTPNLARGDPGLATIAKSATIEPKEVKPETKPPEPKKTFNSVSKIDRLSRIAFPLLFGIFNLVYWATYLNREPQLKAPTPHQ
Described as above. As to conditions: 400 nM α-Bgtx-AF555, 10 min RT; n = 6. The format is binding, murine. As to the method: as §1, §2, §3, §4, §5

For assay [4], the target named is T3, α2β1γ2 GABAAR (Mus musculus, UniProt P22723+P26048+P50571).
T3 construct: expressed in transfected cells; host or cells: HEK-293
T3 sequence (P22723 39-474): as the sequence (P22723 39-474) above
T3 sequence (P50571 26-474): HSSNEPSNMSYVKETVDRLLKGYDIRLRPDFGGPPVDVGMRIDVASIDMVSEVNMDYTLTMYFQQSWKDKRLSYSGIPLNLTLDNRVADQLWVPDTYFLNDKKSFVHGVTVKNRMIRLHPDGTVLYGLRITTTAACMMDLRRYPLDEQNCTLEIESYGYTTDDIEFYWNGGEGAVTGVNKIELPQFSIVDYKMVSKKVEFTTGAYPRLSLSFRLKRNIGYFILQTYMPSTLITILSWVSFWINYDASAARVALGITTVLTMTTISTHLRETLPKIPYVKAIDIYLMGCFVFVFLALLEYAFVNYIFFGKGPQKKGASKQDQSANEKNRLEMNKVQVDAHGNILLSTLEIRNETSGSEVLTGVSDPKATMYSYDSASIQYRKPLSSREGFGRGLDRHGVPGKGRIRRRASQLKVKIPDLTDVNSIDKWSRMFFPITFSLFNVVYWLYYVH
T3 sequence (P26048 29-451): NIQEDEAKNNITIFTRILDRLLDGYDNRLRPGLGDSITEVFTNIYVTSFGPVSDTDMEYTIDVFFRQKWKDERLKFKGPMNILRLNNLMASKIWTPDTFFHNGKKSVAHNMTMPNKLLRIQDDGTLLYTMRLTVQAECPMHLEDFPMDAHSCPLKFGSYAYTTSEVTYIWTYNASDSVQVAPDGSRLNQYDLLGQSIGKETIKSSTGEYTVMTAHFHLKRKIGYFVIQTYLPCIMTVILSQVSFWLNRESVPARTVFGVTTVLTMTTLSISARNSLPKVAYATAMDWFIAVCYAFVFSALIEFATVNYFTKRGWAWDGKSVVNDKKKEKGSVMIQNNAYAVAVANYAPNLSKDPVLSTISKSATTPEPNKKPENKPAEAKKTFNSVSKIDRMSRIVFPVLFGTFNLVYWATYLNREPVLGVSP
The description is as above. Conditions: 400 nM α-Bgtx-AF555, 10 min RT; n = 6. The format is binding, murine. On the procedure: as §1, §2, §3, §4, §5

Assay [5] addresses T4, α2β2γ2 GABAAR (Mus musculus, UniProt P22723+P26048+P63137).
T4 construct: expressed in transfected cells; host or cells: HEK-293
Described as above. The format is binding, murine. Conditions: 400 nM α-Bgtx-AF555, 10 min RT; n = 6. On the procedure:
as §1, §2, §3, §4, §5

The target of assay [6] is T5, α4β1γ2 GABAAR (Mus musculus, UniProt P22723+P50571+Q9D6F4).
T5 construct: expressed in transfected cells; host or cells: HEK-293
T5 sequence (P50571 26-474): as the sequence (P50571 26-474) above
T5 sequence (P22723 39-474): as the sequence (P22723 39-474) above
T5 sequence (Q9D6F4 36-552): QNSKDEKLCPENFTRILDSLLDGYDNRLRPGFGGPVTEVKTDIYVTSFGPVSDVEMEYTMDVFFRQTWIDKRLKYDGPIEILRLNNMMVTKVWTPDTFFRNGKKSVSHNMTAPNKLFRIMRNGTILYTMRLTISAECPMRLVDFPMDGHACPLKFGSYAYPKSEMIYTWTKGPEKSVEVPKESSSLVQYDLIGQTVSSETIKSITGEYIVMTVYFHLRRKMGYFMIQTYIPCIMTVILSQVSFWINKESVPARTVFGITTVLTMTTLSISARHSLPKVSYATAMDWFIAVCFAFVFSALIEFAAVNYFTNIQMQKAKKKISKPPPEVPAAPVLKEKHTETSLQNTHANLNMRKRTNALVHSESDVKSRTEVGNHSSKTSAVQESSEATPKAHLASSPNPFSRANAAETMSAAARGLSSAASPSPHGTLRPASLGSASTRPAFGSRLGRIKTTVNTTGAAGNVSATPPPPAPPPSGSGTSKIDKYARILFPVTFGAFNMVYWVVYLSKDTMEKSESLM
The description is as above. It is filed as binding, murine. As to conditions: 400 nM α-Bgtx-AF555, 10 min RT; n = 6; not significant vs eGFP alone. On the procedure:
as §1, §2, §3, §4, §5

Assay [7] has as its target T6, α4β2γ2 GABAAR (Mus musculus, UniProt P22723+P63137+Q9D6F4).
T6 construct: expressed in transfected cells; host or cells: HEK-293
The assay is described as above. The format is binding, murine. As to conditions: 400 nM α-Bgtx-AF555, 10 min RT; n = 6; not significant vs eGFP alone. On the procedure:
as §1, §2, §3, §4, §5

Assay [8] concerns HEK-293 cells expressing only eGFP. Description: α-Bgtx-AF555 cell surface staining of HEK-293 cells expressing only eGFP. It is filed as binding. As to conditions: 400 nM α-Bgtx-AF555, 10 min RT, n = 6. As to the method: as §2, §3
Live transfected HEK-293 cells were studied 48 h after transfection and washed with Krebs to remove cell culture media and incubated in 400 nM α-Bgtx coupled with Alexa Fluor 555 (α-Bgtx-AF555; Life Technologies) for 10 min at room temperature (RT). […]
Confocal images were analysed using ImageJ (version 1.410) as described previously ([Hannan et al., 2013]). For each cell the surface membrane was identified by drawing a region-of-interest (ROI) in the eGFP channel and this was transferred to the α-Bgtx-AF555 channel and the mean membrane fluorescence values were determined. Mean background fluorescence was determined from a region devoid of cells. This was subtracted from the mean membrane fluorescence providing a mean corrected fluorescence intensity value. […]

The target of assay [9] is T7, β1 homomers (Mus musculus, UniProt P50571).
T7 construct: expressed in transfected cells; host or cells: HEK-293
T7 sequence (P50571 26-474): as the sequence (P50571 26-474) above
Description: α-Bgtx-AF555 staining of HEK-293 cells expressing β homomers, with or without permeabilisation. The format is binding, murine. Conditions: 400 nM α-Bgtx-AF555, with or without permeabilisation. As to the method: as §1, §3, §4
(§6) In experiments using permeabilisation, cells were fixed in 4% PFA for 10 min at RT followed by washes (x3) in phosphate buffered saline (PBS; Sigma) and 0.1% triton-X100 (Sigma) was added for 10 min at RT in 10% (v/v) FCS. Cells were washed to remove the detergent and 400 nM α-Bgtx-AF555 was added for 10 min at RT to label intracellular receptors.
as §5

Assay [10] has as its target T8, β2 homomers (Mus musculus, UniProt P63137).
T8 construct: expressed in transfected cells; host or cells: HEK-293
The assay is described as above. The format is binding, murine. As to conditions: 400 nM α-Bgtx-AF555, with or without permeabilisation. As to the method: as §1, §3, §4, §6, §5

For assay [11], the target named is T9, β3 homomers (Mus musculus, UniProt P63080).
T9 construct: expressed in transfected cells; host or cells: HEK-293
T9 sequence (P63080 26-473): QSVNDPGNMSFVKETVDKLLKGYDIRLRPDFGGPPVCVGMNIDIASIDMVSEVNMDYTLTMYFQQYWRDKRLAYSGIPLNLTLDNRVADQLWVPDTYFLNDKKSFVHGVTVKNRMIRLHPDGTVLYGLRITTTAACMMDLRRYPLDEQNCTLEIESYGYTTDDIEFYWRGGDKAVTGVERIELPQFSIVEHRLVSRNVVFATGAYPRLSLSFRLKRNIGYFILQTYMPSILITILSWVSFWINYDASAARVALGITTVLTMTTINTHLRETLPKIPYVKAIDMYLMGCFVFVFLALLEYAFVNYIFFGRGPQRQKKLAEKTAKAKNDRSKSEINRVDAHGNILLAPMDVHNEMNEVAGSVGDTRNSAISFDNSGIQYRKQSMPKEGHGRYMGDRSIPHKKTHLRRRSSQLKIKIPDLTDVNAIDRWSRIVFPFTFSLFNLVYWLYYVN
Described as above. As to conditions: 400 nM α-Bgtx-AF555, with or without permeabilisation. It is filed as binding, murine. As to the method:
as §1, §3, §4, §6, §5

The subject of assay [12] is E18 rat hippocampal cultured neurons. Nature of the assay: Live cell confocal microscopy of fluorescent α-Bgtx binding to cultured hippocampal neurons. As to conditions: 400 nM; untransfected neurons. As to the method: Dissociated hippocampal neurons were prepared from embryonic day 18 rat pups as described ([Hannan et al., 2012]). Briefly, hippocampi were dissected in ice-cold Hank's Balanced Salt Solution (HBSS) (Ca^2+/Mg^2+ free) before enzymatic dissociation in 0.1% (w/v) trypsin at 37 °C for 10 min followed by serial washes in pre-warmed HBSS to remove trypsin prior to trituration. Cells were mechanically dissociated using fire-polished glass Pasteur pipettes in plating medium composed of minimal essential medium (MEM) supplemented with 5% (v/v) fetal calf serum (FCS), 5% (v/v) horse serum, penicillin-G and streptomycin (200 units/ml and 200 μg/ml), 2 mM L-glutamine and 35 mM glucose. Cells were plated at a density of 10^6 per ml in plating medium on glass cover-slips previously coated with poly-D-lysine. The neurons were grown and maintained at 37 °C in a humidified 95% air/5% CO2 atmosphere.
In addition, low concentrations of fluorophore-conjugated α-Bgtx can also be used to avoid labelling of GABAARs as the affinity of α-Bgtx for endogenous GABAARs is lower compared to that for the BBS. […] Similarly, the over-expression of recombinant receptors in heterologous expression systems (HEK-293 cells) allows the detection of α-Bgtx fluorescence at low concentrations.

T1 sequence (P62812 28-455): as the sequence (P62812 28-455) above
T1 sequence (P50571 26-474): as the sequence (P50571 26-474) above
T1 sequence (P22723 39-474): as the sequence (P22723 39-474) above
T6 sequence (P63137 25-512): as the sequence (P63137 25-512) above
T6 sequence (P22723 39-474): as the sequence (P22723 39-474) above
T6 sequence (Q9D6F4 36-552): as the sequence (Q9D6F4 36-552) above
T8 sequence (P63137 25-512): as the sequence (P63137 25-512) above
T4 sequence (P63137 25-512): as above
T4 sequence (P26048 29-451): as the sequence (P26048 29-451) above
T4 sequence (P22723 39-474): as the sequence (P22723 39-474) above

Consider “α-Bgtx-AF555: α-Bgtx coupled to Alexa-Fluor 555 (Life Technologies)”, for which the “labelling with α-BgTx-AF555” value in [1] is “did not show any labelling”. The “staining intensity (cell surface fluorescence)” value turned out to be 592 ± 46 a.u in [2], 324 ± 33 a.u in [3], 90 ± 64 a.u in [6] and 64 ± 56 a.u in assay [7]. Also, the entries for the “mean cell surface fluorescence intensity” value in assay [4], in assay [5] and in [8] were 1057 ± 64 a.u, 1294 a.u and 9 ± 4 a.u, respectively. In addition, the “cell surface and intracellular staining” value in assay [9] was “absent”; in assay [10], “absent”; in assay [11], “high levels of cell surface and intracellular staining”. The “binding of fluorescent α-Bgtx” value in [12] is recorded as “do not observe any binding”.
